Earlier results on five substances are cited in article PMC2978668.

As a reminder, the Kd is the equilibrium constant for the complex coming apart.

For series [1], the target named is perlecan domain IV (UniProt P98160).
Series [2] has the same target. This is another data set of the same source.
In series [3] the target is fibulin-2 (UniProt P98095).
Series [4] addresses agrin (muscle) (UniProt O00468).
The target in series [5] is α1-laminin (UniProt P25391).
The target of series [6] is perlecan LG (UniProt P98160).
perlecan LG, sequence (P98160 3687-4391): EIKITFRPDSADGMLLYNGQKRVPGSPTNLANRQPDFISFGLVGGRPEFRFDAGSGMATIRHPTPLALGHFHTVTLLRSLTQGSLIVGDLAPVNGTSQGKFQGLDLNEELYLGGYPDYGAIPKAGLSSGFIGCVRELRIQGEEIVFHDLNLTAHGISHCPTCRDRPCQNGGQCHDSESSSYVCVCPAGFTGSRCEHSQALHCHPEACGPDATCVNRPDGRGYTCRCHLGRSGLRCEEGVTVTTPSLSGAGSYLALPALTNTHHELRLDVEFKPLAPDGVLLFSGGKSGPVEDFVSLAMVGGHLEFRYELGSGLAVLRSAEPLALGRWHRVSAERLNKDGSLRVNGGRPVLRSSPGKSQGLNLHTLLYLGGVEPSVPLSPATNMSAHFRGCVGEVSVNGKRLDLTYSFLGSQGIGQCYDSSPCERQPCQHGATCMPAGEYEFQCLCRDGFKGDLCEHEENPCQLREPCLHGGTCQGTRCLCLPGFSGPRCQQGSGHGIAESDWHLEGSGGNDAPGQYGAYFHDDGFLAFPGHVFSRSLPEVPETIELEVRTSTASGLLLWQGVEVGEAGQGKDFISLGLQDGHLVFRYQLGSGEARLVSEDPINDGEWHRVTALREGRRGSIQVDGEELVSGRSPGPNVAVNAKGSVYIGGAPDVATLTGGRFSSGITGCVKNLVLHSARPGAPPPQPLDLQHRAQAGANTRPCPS
Series [7] deals with α2-laminin (UniProt P24043).
For series [8], the target named is α5-laminin (UniProt O15230).
The target of series [9] is α4-laminin (UniProt Q16363).
Series [10] has as its target fibronectin (UniProt P02751).

Read-outs that look alike come from different tables or passages of the source. A value given as a limit tells only on which side of the number the result lay.

α-dystroglycan, sequence (Q14118 30-653): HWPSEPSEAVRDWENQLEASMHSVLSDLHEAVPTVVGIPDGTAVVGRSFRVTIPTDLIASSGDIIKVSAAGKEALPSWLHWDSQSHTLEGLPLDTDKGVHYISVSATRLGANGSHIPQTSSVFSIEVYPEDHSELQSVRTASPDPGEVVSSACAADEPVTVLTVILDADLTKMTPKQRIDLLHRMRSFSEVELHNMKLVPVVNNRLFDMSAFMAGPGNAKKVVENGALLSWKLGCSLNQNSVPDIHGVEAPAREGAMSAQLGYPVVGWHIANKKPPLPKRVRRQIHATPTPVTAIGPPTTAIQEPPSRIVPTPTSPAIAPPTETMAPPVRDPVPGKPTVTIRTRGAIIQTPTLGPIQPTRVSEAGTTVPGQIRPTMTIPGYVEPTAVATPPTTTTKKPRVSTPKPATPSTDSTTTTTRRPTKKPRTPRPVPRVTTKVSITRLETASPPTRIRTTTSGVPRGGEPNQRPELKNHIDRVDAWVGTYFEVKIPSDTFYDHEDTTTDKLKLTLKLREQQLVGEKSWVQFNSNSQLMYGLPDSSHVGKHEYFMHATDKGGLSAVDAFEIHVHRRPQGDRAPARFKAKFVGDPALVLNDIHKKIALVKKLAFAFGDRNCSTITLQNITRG
perlecan domain IV (UniProt P98160), sequence (P98160 1677-3686): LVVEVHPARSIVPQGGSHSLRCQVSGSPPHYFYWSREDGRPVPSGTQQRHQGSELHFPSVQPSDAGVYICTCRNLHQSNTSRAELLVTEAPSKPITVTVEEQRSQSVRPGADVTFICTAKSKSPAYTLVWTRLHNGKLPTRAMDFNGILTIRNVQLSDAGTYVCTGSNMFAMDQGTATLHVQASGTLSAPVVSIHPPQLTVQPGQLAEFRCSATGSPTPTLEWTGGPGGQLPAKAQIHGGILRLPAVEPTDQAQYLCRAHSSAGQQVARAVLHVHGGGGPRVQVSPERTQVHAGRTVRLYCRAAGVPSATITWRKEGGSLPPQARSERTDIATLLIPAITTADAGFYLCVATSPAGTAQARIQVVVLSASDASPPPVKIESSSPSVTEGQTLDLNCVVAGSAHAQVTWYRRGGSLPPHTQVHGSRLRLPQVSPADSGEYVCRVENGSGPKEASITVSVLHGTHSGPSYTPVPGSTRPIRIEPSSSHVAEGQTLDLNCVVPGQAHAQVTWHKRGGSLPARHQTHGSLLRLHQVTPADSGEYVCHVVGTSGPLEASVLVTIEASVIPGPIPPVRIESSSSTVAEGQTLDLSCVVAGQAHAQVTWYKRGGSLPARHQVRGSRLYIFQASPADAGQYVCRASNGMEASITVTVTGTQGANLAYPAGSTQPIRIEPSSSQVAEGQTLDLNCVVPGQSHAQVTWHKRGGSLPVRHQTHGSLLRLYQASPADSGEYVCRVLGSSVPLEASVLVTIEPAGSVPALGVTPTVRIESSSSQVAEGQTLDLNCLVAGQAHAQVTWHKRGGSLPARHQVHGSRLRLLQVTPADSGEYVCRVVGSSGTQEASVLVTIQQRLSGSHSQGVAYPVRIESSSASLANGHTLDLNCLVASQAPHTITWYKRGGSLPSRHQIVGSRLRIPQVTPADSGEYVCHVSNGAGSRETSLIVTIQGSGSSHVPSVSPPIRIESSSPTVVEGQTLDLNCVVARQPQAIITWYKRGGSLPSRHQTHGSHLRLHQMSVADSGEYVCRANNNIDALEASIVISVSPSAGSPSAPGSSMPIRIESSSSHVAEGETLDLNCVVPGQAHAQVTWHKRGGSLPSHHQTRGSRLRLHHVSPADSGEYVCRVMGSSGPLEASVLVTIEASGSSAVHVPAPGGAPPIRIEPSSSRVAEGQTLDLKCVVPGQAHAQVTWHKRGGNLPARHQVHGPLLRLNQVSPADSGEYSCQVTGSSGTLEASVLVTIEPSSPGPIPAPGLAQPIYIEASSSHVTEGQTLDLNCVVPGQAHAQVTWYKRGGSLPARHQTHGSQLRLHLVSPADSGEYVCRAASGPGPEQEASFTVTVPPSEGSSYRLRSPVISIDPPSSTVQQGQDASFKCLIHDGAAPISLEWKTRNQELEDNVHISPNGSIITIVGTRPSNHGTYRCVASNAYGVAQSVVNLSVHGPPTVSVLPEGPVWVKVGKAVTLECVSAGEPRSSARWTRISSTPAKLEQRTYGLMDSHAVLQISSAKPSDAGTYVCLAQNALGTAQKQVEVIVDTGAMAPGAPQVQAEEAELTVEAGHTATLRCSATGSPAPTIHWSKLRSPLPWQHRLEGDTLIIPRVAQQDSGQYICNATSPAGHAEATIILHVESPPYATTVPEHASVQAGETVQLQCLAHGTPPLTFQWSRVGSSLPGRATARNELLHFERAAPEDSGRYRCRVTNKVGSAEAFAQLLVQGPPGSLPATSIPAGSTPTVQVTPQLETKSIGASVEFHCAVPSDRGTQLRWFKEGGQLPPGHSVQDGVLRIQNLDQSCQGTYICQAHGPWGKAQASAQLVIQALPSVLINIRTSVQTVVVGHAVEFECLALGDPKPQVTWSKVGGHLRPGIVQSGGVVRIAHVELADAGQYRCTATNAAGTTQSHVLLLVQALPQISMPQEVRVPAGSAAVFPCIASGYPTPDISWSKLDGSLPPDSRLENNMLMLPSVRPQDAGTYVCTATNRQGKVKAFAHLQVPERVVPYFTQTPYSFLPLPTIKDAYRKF
nidogen-2, sequence (Q14112 31-1375): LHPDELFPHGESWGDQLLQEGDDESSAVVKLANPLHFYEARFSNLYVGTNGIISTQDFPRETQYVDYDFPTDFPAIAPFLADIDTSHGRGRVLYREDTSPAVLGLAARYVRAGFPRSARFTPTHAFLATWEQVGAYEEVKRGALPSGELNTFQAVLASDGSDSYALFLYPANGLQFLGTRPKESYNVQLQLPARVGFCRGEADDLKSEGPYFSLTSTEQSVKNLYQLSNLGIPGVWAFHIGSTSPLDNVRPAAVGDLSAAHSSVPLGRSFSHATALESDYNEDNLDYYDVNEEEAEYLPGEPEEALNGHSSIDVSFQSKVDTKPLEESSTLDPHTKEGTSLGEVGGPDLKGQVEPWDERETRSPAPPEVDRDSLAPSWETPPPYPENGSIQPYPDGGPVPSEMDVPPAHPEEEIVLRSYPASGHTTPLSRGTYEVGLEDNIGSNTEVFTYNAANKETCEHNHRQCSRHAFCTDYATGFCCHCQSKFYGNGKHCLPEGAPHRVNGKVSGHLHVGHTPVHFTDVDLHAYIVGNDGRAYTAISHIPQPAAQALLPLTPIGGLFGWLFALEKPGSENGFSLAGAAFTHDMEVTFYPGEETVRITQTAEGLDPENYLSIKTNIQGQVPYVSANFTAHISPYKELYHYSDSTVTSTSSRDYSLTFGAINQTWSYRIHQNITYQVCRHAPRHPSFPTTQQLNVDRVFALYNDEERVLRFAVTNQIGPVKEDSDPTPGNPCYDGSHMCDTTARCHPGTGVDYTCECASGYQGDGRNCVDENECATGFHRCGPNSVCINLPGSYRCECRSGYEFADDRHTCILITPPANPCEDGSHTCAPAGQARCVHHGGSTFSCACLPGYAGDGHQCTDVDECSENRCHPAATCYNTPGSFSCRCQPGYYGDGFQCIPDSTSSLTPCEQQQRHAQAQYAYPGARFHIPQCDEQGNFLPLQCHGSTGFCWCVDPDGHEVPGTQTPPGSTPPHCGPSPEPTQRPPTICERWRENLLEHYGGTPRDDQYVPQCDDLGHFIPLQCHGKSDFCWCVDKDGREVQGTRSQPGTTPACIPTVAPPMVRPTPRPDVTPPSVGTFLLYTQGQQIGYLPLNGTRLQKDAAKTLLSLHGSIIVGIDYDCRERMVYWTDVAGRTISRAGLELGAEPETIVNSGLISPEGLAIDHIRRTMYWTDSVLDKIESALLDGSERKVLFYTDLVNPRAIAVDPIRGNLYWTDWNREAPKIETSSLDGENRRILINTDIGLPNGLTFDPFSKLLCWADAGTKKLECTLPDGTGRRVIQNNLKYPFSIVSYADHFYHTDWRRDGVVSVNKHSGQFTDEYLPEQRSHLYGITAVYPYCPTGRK
nidogen-1 G2, sequence (P14543 430-667): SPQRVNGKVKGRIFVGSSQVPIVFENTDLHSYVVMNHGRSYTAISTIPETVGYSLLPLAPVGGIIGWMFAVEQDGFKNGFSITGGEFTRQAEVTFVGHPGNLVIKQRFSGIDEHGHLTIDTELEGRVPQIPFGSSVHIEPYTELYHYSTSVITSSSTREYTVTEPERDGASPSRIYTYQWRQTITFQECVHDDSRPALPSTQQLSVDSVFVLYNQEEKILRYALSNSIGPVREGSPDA
perlecan domain IV (from UniProt P98160), sequence (P98160 1677-3686): as the sequence (P98160 1677-3686) above

nidogen-1 G2 (from UniProt P14543): in series [1], the Kd is 10 nM.

As to nidogen-2 (from UniProt Q14112), the Kd in series [2] was 10 nM.

With nidogen (from UniProt P14543), in [3], the dissociation constant Kd is below 0.5 nM.

For α-dystroglycan (from UniProt Q14118), the Kd was 2 nM in [4]; 20 nM in series [5]; 16 nM in [6]; 43 nM in series [7]; 150 nM in series [8]; above 1000 nM in series [9].

Turning to “perlecan domain IV (from UniProt P98160)”, in series [10], the Kd was 10 nM.
